T1: siglec 15 expressed on HEK293 cells (UniProt Q6ZMC9 20-328, limits assumed)
T1 construct: whole, on cells; also called Siglec-6 family member
T1 sequence (looked up): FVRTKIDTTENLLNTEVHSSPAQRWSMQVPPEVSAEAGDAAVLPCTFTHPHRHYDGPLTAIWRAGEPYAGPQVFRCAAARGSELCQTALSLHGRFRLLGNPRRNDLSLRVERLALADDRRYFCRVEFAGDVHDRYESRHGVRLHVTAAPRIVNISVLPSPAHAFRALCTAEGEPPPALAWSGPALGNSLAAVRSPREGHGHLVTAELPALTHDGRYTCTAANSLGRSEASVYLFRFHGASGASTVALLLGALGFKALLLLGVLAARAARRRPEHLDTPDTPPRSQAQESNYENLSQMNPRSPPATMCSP

T2: siglec 4 expressed on HEK293 cells (UniProt P20916 20-626, limits assumed)
T2 construct: whole, on cells; also called Siglec-6 family member
T2 sequence (looked up): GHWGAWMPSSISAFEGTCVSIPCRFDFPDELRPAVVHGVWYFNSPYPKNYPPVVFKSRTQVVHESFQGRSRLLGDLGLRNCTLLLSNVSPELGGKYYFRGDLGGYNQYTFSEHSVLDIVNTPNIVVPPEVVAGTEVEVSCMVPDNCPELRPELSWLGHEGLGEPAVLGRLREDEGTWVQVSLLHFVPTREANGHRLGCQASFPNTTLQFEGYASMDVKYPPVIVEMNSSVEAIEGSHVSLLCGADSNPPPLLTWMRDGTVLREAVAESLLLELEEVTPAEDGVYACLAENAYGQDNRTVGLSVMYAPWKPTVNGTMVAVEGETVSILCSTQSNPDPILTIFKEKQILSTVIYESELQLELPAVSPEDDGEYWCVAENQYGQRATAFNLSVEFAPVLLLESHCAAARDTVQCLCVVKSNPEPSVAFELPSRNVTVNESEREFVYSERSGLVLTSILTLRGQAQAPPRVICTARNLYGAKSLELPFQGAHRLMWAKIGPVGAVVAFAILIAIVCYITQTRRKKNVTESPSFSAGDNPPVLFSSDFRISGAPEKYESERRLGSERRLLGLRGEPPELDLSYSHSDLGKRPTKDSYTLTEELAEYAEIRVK

T3: siglec 11 expressed on HEK293 cells (UniProt Q96RL6 28-698, limits assumed)
T3 construct: whole, on cells; also called Siglec-6 family member
T3 sequence (looked up): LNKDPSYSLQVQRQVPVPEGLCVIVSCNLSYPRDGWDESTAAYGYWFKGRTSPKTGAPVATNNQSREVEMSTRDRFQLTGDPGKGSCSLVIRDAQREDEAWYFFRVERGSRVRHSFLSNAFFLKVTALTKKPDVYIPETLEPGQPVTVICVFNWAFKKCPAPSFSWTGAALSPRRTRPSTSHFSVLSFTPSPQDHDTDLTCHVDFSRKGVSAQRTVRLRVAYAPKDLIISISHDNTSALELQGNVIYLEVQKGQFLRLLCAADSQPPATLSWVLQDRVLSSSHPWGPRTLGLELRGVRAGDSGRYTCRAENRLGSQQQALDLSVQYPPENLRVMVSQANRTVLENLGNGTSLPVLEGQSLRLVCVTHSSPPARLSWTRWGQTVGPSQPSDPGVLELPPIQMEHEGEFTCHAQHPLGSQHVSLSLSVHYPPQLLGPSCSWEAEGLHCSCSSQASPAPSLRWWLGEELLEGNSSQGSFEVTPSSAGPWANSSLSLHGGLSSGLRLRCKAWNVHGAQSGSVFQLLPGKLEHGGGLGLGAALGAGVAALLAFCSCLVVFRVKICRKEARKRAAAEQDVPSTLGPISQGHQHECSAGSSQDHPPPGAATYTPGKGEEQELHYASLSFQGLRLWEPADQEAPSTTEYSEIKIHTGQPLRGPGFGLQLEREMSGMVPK


Legend:
[1] = target: T1, siglec 15 expressed on HEK293 cells; test: flow cytometry on HEK293 cells expressing the target
Experimental: (§1) Cultured HEK293 cells expressing human siglec-6, cynomolgus siglec-6, or siglec 6 family members were resuspended in FACS Blocking Buffer (PBS+10% normal human serum) for 30 minutes. Following washing, cells were incubated with siglec-6 antibodies in FACS Buffer (PBS+0.5% bovine serum albumin+0.09% sodium azide) and incubated at 4° C. for 30 minutes, washed and incubated with PE-labeled anti-human secondary antibody. Cells were incubated at 4° C. for 30 minutes in the dark. Following washing, cytofluorimetric analysis was conducted using a BD FACS Symphony A3 (BD Biosciences). Cells were sorted by scatter properties and separated for single cell analysis using side scatter width vs side scatter area. Antibody binding to cells was quantitated by measuring fluorescent emissions of excitation wavelength of 561 nm using a 586/15 nm filter. Data analysis was performed using FlowJo Software.

[2] = target: T4, siglec 12 expressed on HEK293 cells (UniProt Q96PQ1 19-595, limits assumed); test: as above
T4 construct: whole, on cells; also called Siglec-6 family member
Experimental: as §1

[3] = target: T5, siglec 1 expressed on HEK293 cells (UniProt Q9BZZ2 20-1709, limits assumed); test: as above
T5 construct: whole, on cells; also called Siglec-6 family member
Experimental: as §1

[4] = target: T2, siglec 4 expressed on HEK293 cells; test: as above
Experimental: as §1

[5] = target: T6, siglec 3 expressed on HEK293 cells (UniProt P20138 18-364, limits assumed); test: as above
T6 construct: whole, on cells; also called Siglec-6 family member
Experimental: as §1

[6] = target: T7, siglec 9 expressed on HEK293 cells (UniProt Q9Y336 18-463, limits assumed); test: as above
T7 construct: whole, on cells; also called Siglec-6 family member
Experimental: as §1

[7] = target: T3, siglec 11 expressed on HEK293 cells; test: as above
Experimental: as §1

[8] = target: T8, Human siglec-6 expressed on the cell surface (HMC1.2 cells; HEK293 cells expressing human siglec-6) (human, UniProt O43699 27-453); test: flow cytometry on HMC1.2 cells
T8 construct: whole, on cells; also called cell surface expressed siglec-6; CD327
Experimental: as §1, with “Target binding of siglec-6 antibodies to siglec-6-expressing cells was assessed by flow cytometry. Cultured” for “Cultured”, “HMC1.2” for “HEK293”, “cells” for “cells expressing human siglec-6, cynomolgus siglec-6, or siglec 6 family members”, “anti-human or anti-mouse” for “anti-human”, “antibodies.” for “antibody.”, “All tested siglec-6 antibodies were capable of binding to cells expressing siglec-6.” for “Data analysis was performed using FlowJo Software.”

T8 sequence (O43699 27-453): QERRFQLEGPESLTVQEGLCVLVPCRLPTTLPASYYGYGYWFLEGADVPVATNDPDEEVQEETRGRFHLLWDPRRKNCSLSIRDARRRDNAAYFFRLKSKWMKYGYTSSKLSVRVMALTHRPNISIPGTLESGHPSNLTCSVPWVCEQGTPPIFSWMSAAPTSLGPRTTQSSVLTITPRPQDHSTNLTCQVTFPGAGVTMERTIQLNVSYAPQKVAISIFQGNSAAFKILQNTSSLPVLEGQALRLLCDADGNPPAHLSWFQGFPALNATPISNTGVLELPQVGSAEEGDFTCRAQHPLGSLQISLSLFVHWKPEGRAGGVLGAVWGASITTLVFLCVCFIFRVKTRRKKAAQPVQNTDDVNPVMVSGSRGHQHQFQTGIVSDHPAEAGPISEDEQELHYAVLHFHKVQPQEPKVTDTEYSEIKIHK
T6 sequence (P20138 18-364 limits assumed): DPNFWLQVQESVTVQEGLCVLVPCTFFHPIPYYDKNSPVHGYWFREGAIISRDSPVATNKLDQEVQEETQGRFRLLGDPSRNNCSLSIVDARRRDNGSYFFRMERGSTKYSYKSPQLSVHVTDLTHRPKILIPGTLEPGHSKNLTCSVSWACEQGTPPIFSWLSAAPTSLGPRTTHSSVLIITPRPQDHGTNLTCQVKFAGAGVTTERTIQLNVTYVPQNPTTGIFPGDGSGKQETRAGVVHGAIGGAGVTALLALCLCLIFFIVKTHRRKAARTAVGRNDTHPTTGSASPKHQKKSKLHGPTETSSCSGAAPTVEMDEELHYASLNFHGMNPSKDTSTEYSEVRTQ
T7 sequence (Q9Y336 18-463 limits assumed): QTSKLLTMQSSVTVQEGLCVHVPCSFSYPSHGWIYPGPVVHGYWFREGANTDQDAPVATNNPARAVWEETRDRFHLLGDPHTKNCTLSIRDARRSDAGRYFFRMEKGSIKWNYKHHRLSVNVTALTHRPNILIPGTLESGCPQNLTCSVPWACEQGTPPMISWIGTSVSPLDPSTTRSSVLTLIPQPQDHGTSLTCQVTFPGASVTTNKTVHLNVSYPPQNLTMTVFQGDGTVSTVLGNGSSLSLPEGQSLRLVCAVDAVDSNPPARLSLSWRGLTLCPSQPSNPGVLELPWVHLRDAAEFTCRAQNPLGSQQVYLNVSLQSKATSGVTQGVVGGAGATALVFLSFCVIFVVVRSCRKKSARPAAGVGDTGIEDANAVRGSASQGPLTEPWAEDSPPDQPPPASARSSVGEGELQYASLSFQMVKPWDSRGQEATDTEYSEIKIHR
T5 sequence (Q9BZZ2 20-1709 limits assumed): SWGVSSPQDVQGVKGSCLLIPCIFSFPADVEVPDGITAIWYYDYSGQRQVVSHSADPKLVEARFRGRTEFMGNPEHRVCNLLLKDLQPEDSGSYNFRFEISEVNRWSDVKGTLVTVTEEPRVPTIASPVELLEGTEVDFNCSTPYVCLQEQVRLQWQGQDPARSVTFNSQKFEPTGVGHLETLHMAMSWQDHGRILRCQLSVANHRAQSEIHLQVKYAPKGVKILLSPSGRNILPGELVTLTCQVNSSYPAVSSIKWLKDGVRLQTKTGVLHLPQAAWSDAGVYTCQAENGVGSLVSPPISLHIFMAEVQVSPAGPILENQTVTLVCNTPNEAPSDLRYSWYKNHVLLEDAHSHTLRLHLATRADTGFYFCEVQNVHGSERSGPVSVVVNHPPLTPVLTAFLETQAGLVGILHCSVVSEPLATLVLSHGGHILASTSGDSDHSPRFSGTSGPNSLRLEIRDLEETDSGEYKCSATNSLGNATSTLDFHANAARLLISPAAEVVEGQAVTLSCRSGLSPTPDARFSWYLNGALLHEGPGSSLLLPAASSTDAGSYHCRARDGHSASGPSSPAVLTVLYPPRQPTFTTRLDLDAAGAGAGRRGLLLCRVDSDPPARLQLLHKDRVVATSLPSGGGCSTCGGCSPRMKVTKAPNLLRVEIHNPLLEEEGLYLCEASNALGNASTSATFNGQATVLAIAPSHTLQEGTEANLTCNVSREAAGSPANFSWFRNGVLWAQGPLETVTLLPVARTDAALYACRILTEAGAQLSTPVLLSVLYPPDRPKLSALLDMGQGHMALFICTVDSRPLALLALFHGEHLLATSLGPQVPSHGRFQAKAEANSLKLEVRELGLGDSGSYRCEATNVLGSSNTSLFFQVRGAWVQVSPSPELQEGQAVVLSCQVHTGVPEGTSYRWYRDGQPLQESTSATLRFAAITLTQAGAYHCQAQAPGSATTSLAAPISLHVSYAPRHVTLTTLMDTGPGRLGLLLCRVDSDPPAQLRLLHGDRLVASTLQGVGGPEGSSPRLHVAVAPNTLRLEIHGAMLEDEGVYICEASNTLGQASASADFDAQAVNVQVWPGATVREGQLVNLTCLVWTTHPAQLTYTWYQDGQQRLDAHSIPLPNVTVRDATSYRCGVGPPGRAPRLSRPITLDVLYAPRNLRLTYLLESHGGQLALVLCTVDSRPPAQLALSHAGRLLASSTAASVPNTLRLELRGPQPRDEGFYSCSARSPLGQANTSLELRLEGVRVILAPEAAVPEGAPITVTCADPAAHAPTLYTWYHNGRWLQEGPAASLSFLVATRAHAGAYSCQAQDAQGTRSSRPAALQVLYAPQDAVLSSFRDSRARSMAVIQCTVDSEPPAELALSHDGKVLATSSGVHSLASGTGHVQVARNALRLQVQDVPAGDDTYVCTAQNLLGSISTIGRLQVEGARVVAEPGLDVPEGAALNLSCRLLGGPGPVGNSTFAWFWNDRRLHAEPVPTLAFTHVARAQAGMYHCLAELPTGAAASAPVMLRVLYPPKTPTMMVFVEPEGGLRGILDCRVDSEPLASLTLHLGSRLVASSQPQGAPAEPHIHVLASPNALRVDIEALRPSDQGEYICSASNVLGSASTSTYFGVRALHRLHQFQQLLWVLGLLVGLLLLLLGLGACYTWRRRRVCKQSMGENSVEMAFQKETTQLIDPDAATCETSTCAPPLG
T4 sequence (Q96PQ1 19-595 limits assumed): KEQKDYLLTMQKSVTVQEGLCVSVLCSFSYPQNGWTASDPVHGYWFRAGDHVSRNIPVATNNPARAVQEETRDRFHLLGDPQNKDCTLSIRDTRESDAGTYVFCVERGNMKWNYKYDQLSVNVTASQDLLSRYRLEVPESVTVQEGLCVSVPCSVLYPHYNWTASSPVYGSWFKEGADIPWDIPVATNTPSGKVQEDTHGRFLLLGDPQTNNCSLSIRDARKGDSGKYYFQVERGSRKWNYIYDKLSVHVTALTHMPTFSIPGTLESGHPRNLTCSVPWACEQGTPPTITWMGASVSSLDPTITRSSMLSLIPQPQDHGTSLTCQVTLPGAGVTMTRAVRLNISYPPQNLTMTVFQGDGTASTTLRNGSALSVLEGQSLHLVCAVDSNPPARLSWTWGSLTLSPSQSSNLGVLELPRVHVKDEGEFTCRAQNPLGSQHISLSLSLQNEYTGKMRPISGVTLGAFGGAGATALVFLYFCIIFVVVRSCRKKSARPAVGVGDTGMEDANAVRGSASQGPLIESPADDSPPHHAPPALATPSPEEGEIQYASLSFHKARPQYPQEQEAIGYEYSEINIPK

binding result [1] | binding result [2] | binding result [3] | binding result [4] | binding result [5] | binding result [6] | binding result [7] | MFI [8] [MFI] | Percent Positive for Siglec-6 on HMC1.2 cells [8] [%] | Binder
no binding | no binding | no binding | no binding | no binding | no binding | no binding | 1940 | 99.9 | hRND-5 (antibody, human IgG1, kappa, V domains shown, also called humanized RND-5; hRND-H3b / hRND-L3; copies: 2 + 2) VH: QVQLVQSGAEVKKPGASVKLSCKASGYAFTSYWMHWVRQAPGQRLEWIGEIYPTNGGTTYNEKFKRRATLTVDKSTSTAYMELSRLRSDDTAVYYCTIEDFYAMDYWGQGTTVTVSS VL: DIVMTQTPLSLSVTPGQPASISCKSSQSLLDSDGKTSLNWLLQKPGQSPQRLIYLVSKLDSGVPDRFSGSGSGTDFTLKISRVEAEDVGVYYCWQGTHFPYTFGQGTKLEIKR
no binding | no binding | no binding | no binding | no binding | no binding | no binding | 3700 | 99.9 | hRND-3 (antibody, human IgG1, kappa, V domains shown, also called humanized RND-3; hRND-H3 / hRND-L3; copies: 2 + 2) VH: QVQLVQSGAEVKKPGASVKLSCKASGYAFTSYWMHWVRQAPGQRLEWIGEIYPTNGGTTYAQKFQGRATLTVDKSTSTAYMELSRLRSDDTAVYYCTIEDFYAMDYWGQGTTVTVSS VL: DIVMTQTPLSLSVTPGQPASISCKSSQSLLDSDGKTSLNWLLQKPGQSPQRLIYLVSKLDSGVPDRFSGSGSGTDFTLKISRVEAEDVGVYYCWQGTHFPYTFGQGTKLEIKR

The next lines start with the binder.

Binder | binding result [1] | binding result [2] | binding result [3] | binding result [4] | binding result [5] | binding result [6] | binding result [7] | MFI [8] [MFI] | Percent Positive for Siglec-6 on HMC1.2 cells [8] [%]
hRND-2 (antibody, human IgG1, kappa, V domains shown, also called humanized RND-2; hRND-H2 / hRND-L3; copies: 2 + 2) VH: QVQLVQSGAEVKKPGASVKVSCKASGYAFTSYWMHWVRQAPGQRLEWMGEIYPTNGGTTYAQKFQGRVTMTVDKSTSTAYMELSRLRSDDTAVYYCTIEDFYAMDYWGQGTTVTVSS VL: DIVMTQTPLSLSVTPGQPASISCKSSQSLLDSDGKTSLNWLLQKPGQSPQRLIYLVSKLDSGVPDRFSGSGSGTDFTLKISRVEAEDVGVYYCWQGTHFPYTFGQGTKLEIKR | no binding | no binding | no binding | no binding | no binding | no binding | no binding | 3130 | 99.9
hRND-4 (antibody, human IgG1, kappa, V domains shown, also called humanized RND-4; hRND-H2b / hRND-L3; copies: 2 + 2) VH: QVQLVQSGAEVKKPGASVKVSCKASGYAFTSYWMHWVRQAPGQRLEWMGEIYPTNGGTTYNEKFKRRVTMTVDKSTSTAYMELSRLRSDDTAVYYCTIEDFYAMDYWGQGTTVTVSS VL: DIVMTQTPLSLSVTPGQPASISCKSSQSLLDSDGKTSLNWLLQKPGQSPQRLIYLVSKLDSGVPDRFSGSGSGTDFTLKISRVEAEDVGVYYCWQGTHFPYTFGQGTKLEIKR | no binding | no binding | no binding | no binding | no binding | no binding | no binding | 3200 | 100
